According to US20070249530A1:

Assays:
[1] = molecular target: Murine APRIL (K104-L241) thioredoxin fusion protein (murine) (UniProt Q9D777); test: competitive displacement ELISA on immobilized APRIL; unlabeled baculovirus BCMA varied, tracer biotinylated baculovirus BCMA
[2] = molecular target: Murine APRIL (K104-L241) thioredoxin fusion protein (murine) (UniProt Q9D777); test: competitive displacement ELISA on immobilized APRIL; unlabeled baculovirus BCMA varied, tracer biotinylated BCMA-Z
[3] = molecular target: Murine APRIL (K104-L241) thioredoxin fusion protein (murine) (UniProt Q9D777); test: competitive displacement ELISA on immobilized APRIL; unbiotinylated BCMA-Fc varied, tracer biotinylated BCMA-Z
[4] = molecular target: Murine APRIL (K104-L241) thioredoxin fusion protein (murine) (UniProt Q9D777); test: SPR (BIAcore 3000), APRIL immobilized, 1:1 model
[5] = molecular target: Murine APRIL (K104-L241) thioredoxin fusion protein (murine) (UniProt Q9D777); test: competitive displacement ELISA; immobilized APRIL, tracer biotinylated BCMA-Z
[6] = molecular target: Murine APRIL (K104-L241) thioredoxin fusion protein (murine) (UniProt Q9D777); test: competition ELISA; immobilized APRIL, tracer biotinylated BCMA-Z

Sequence of BCMA-Fc (Q02223 5-51): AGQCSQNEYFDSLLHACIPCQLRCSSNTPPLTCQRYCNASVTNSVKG
Sequence of BCMA ECD purified from baculovirus expression (Q02223 4-53): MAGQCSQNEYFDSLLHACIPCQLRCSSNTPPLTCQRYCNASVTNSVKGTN

Row | Substance | IC50 (read off the curve) [1] | IC50 (read off the curve) [2] | IC50 (read off the curve) [3] | Kd [4] | kon [4] | IC50 [5] | IC50 [6]
1 | BCMA ECD purified from baculovirus expression (from UniProt Q02223 4-53) (receptor) | 20 nM | 10 nM |  |  |  |  | 
2 | BCMA-Fc (from UniProt Q02223 5-51) (Fc fusion) |  |  | 7 nM | 0.2 nM | 3.12e+06 M⁻¹ s⁻¹ | 5 nM | 7 to 10 nM
